Assay results published in article PMC9097636, “FOXO transcription factors differ in their dynamics and intra/intermolecular interactions” (Current Research in Structural Biology, 2022).

B1: FOXO6 conserved region 3 (CR3, transactivation domain), amino acids 418 to 472 (domain or fragment, human, UniProt A8MYZ6 418-472, looked up)
chain: YAAAAAGPLGAAPDRFPADLDLDMFSGSLECDVESIILNDFMDSDEMDFNFDSAL
notes: human FOXO6, Uniprot A8MYZ6, amino acids 418 to 472, CR3; Unlabelled in the titrations; also called FOXO6^CR3; CR3 of FOXO6; source: E. coli BL21-DE3 Star, lysed in 6 M urea, purified (Ni-NTA, TEV cleavage, second Ni-NTA, SEC)
B2: FOXO1 conserved region 3 (CR3, transactivation domain), amino acids 587 to 636 (domain or fragment, human, UniProt Q12778 587-636, looked up)
chain: YGRMGLLHQEKLPSDLDGMFIERLDCDMESIIRNDLMDGDTLDFNFDNVL
notes: human FOXO1, Uniprot Q12778, amino acids 587 to 636, CR3; Unlabelled in the titrations; also called FOXO1^CR3; CR3 of FOXO1; source: E. coli BL21-DE3 Star, lysed in 6 M urea, purified (Ni-NTA, TEV cleavage, second Ni-NTA, SEC)

What was measured:
Assay in all cases: NMR titration; 1H,15N HSQC of 50 uM 15N-labelled FH domain, unlabelled CR3 added in trans (25 uM or 50 uM); 50 mM NaH2PO4/Na2HPO4 pH 6.5, 0.04% NaN3, 5 mM DTT; 25 C; read-out chemical shift perturbations and line broadening
Details in all cases: both partners purified
[1] = molecular target: T1, FOXO6 forkhead (FH) domain, amino acids 71 to 191 (human, UniProt A8MYZ6 71-191)
T1 construct: human FOXO6 (Forkhead box O6), Uniprot A8MYZ6, amino acids 71 to 191, forkhead domain; Uniformly 15N-labelled in the NMR titrations; Cloned into the vector pETM11-ZZ-His6 via NcoI/BamHI; also called FOXO6^FH; FOXO6 FH domain; source: E. coli BL21-DE3 Star, purified (Ni-NTA, TEV cleavage, second Ni-NTA, SEC)

[2] = molecular target: T2, FOXO1 forkhead (FH) domain, amino acids 143 to 270 (human, UniProt Q12778 143-270)
T2 construct: human FOXO1 (Forkhead box O1), Uniprot Q12778, amino acids 143 to 270, forkhead domain; Uniformly 15N-labelled in the NMR titrations; Cloned into the vector pETM11-ZZ-His6 via NcoI/BamHI; also called FOXO1^FH; FOXO1 FH domain; source: E. coli BL21-DE3 Star, purified (Ni-NTA, TEV cleavage, second Ni-NTA, SEC)

[3] = molecular target: T3, FOXO3 forkhead (FH) domain, amino acids 141 to 260 (human, UniProt O43524 141-260)
T3 construct: human FOXO3 (Forkhead box O3), Uniprot O43524, amino acids 141 to 260, forkhead domain; Uniformly 15N-labelled in the NMR titrations; Cloned into the vector pETM11-ZZ-His6 via NcoI/BamHI; also called FOXO3^FH; FOXO3 FH domain; source: E. coli BL21-DE3 Star, purified (Ni-NTA, TEV cleavage, second Ni-NTA, SEC)
T3 sequence (O43524 141-260): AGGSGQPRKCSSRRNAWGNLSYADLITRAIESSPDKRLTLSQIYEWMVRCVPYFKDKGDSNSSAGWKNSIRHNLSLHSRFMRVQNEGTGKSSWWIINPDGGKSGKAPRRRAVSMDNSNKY

T1 sequence (A8MYZ6 71-191): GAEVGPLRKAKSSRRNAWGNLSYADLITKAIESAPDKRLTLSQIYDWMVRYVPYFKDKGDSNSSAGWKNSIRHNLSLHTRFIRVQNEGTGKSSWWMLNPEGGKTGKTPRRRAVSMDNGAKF
T2 sequence (Q12778 143-270): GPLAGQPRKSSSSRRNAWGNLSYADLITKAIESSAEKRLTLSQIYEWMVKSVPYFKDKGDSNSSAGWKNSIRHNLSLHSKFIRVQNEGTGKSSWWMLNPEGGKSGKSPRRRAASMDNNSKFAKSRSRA

Row | Binder | binding result [1] | binding result [2] | binding result [3]
1 | B1 | binds | binds | 
2 | B2 | binds | binds | binds
